{"source": "paper PMC8609353", "key": {"[1]": {"molecular_target": "N1 NA head domain from A/Michigan/45/2015 (H1N1), obtained from N1-MPP by thrombin cleavage (influenza A virus A/Michigan/45/2015 (H1N1))", "assay": "crystal structure; N1 head after thrombin removal of the MPP domain; sitting drop, 0.2 M calcium acetate, 20% PEG 3350, 20°C; 2.90 Å"}, "[2]": {"molecular_target": "N1-MPP: recombinant N1 neuraminidase head domain of A/Michigan/45/2015 (H1N1) fused to the measles virus phosphoprotein tetramerization domain (measles virus | influenza A virus A/Michigan/45/2015 (H1N1))", "assay": "cross-linking"}, "[3]": {"molecular_target": "N1-SPP: recombinant N1 neuraminidase head domain of A/Michigan/45/2015 (H1N1) fused to the Sendai virus phosphoprotein tetramerization domain (Sendai virus | influenza A virus A/Michigan/45/2015 (H1N1))", "assay": "cross-linking"}, "[4]": {"molecular_target": "N1-VASP: recombinant N1 neuraminidase head domain of A/Michigan/45/2015 (H1N1) fused to the vasodilator-stimulated phosphoprotein tetramerization domain (human | influenza A virus A/Michigan/45/2015 (H1N1))", "assay": "cross-linking"}}, "data": [{"substance": "N1 NA head domain from A/Michigan/45/2015 (H1N1), obtained from N1-MPP by thrombin cleavage (domain or fragment)", "values": [{"measurement": "stoichiometry N", "setting": "[1]", "value": 4}]}, {"substance": "N1-MPP: recombinant N1 neuraminidase head domain of A/Michigan/45/2015 (H1N1) fused to the measles virus phosphoprotein tetramerization domain", "values": [{"measurement": "stoichiometry N", "setting": "[2]", "value": 4}]}, {"substance": "N1-SPP: recombinant N1 neuraminidase head domain of A/Michigan/45/2015 (H1N1) fused to the Sendai virus phosphoprotein tetramerization domain", "values": [{"measurement": "stoichiometry N", "setting": "[3]", "value": 4}]}, {"substance": "N1-VASP: recombinant N1 neuraminidase head domain of A/Michigan/45/2015 (H1N1) fused to the vasodilator-stimulated phosphoprotein tetramerization domain", "values": [{"measurement": "stoichiometry N", "setting": "[4]", "value": 4}]}]}
